Results: patent publication KR20230083068A (dated 2023)

Tests used:
[1] = target: T1, 비오틴 펩타이드-6xHis-tagged HCoV-OC43 N 단백질 (HCoV-OC43 N 단백질-Bio-His6) (HCoV-OC43, UniProt P33469 1-448)
T1 chain: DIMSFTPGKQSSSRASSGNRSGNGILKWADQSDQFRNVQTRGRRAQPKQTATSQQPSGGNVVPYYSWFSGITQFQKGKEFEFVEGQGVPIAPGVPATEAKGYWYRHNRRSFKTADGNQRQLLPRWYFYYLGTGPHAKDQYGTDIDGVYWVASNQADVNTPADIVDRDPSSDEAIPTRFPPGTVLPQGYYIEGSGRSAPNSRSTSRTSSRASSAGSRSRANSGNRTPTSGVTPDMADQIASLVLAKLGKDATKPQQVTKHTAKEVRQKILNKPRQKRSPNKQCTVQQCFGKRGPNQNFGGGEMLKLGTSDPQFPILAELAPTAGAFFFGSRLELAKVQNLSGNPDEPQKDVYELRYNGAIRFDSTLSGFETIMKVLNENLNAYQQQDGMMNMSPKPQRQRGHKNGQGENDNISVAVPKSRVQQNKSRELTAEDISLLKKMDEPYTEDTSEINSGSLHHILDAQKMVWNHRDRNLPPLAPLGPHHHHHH

[2] = target: MERS-CoV N 단백질 (MERS-CoV 감염 Vero 세포 용해물) (MERS-CoV, UniProt K9N4V7 1-411); experiment: western blot of infected Vero cell lysates
[3] = target: SARS-CoV-2 N 단백질 (SARS-CoV-2 감염 Vero 세포 용해물) (SARS-CoV-2, UniProt P0DTC9 1-419); experiment: western blot of infected Vero cell lysates

B1: 항-HCoV-OC43 N 단백질 특이적 단클론 항체 (클론 1C7D7 mAb) (antibody, V domains shown)
VH: EVKLEQSGGGLVKPGGSLKLSCAASGFSFSSHTMSWVRQTPEKRLEWVATITSGGTYTYYPDSVKGRFTISRDNAKNTLYLQMTSLKSEDTAMYYCTRGQEADGYYVPFAYWGQGTLVTVSA
VL: DIVMTQSPSSLAVSVGEKVTMSCKSSQSLLYSSNQKNYLAWYQQKPGQSPKLLIFWASTRESGVPDRFTGSGSGTDFTLTISSVQAEDLAVYYCKQSYNLRTFGGGTKLEIKR
notes: also called anti-HCoV-OC43 N monoclonal antibody
Q: B1 was tested. Which EC50 [1] did it give?
A: ~1.2 nM

Q: Does B1 bind [2]?
A: no binding

Q: Does B1 bind [3]?
A: no binding
